Measured values published in US20030167487A1 (Takeda / Millennium, published 2003).

B1: mouse GP Ib on platelets (receptor)
chain 1: QHTCSISKVTSLLEVNCENKKLTALPADLPADTGILHLGENQLGTFSTASLVHFTHLTYLYLDRCELTSLQTNGKLIKLENLDLSHNNLKSLPSLGWALPALTTLDVSFNKLGSLSPGVLDGLSQLQELYLQNNDLKSLPPGLLLPTTKLKKLNLANNKLRELPSGLLDGLEDLDTLYLQRNWLRTIPKGFFGTLLLPFVFLHANSWYCDCEILYFRHWLQENANNVYLWKQGVDVKDTTPNVASVRCANLDNAPVYSYPGKGCPTSSGDTDYDDYDDIPDVPATRTEVKFSTNTKVHTTHWSLLAAAPSTSQDSQMISLPPTHKPTKKQSTFIHTQSPGFTTLPETMESNPTFYSLKLNTVLIPSPTTLEPTSTQATPEPNIQPMLTTSTLTTPEHSTTPVPTTTILTTPEHSTIPVPTTAILTTPKPSTIPVPTTATLTTLEPSTTPVPTTATLTTPEPSTTLVPTTATLTTPEHSTTPVPTTATLTTPEHSTTPVPTTATLTTPEPSTTLTNLVSTISPVLTTTLTTPESTPIETILEQFFTTELTLLPTLESTTTIIPEQNSFLNLPEVALVSSDTSESSPFLNSDFCCFLPLGFYVLGLLWLLFASVVLILLLTWTWHVTPHSLDMEQSAALATSTHTTSLEVQRARQVTMPRAWLLFLQGSLPTFRSSLFLWVRPNGRVGPLVAGRRPSALSQGRGQDLLGTVGIRYSGHSL
chain 2: PAPCSCAGTLVDCGRRGLTWASLPAAFPPDTTELVLTGNNLTALPPGLLDALPALRAAHLGANPWRCDCRLLPLRAWLAGRPERAPYRDLRCVAPPALRGRLLPYVAEDELRAACAPGLLCWGALVAQLALLVLGLLHALLLALLLGRLRRLRARARARSIQEFSLTAPLVAESARGGAS
notes: whole, on cells; Native receptor on mouse platelets of GP V wt, +/- and -/- genotype, present there in complex with GP IX (and with GP V in wt); also called GP Ib-IX (complex on platelets)
B2: mouse αIIbβ3 on platelets (receptor)
chain 1: LNLDSEKFSVYAGPNGSHFGFSVDFHKDKHGSVSIVVGAPRALNASQEETGAVFLCPWKANGGKCNPLLFDLRDETRNLGFQIFQTFKTGQGLGASVVSWNDVIVACAPWQHWNVLEKRDEAEKTPVGGCFLAQLQSGGRAEYSPCRANTMSSVYAESFRGDKRYCEAGFSLAVTQAGELVLGAPGGYFFLGLLARVPIENIISSYRPGTLLWHVSNQRFTYDNSNPVFFDGYRGYSVAVGEFDGDPSTTEYVSGAPTWSWTLGAVEILDSYYQPLHRLHGEQMASYFGHSVAVTDVNGDGRHDLLVGAPLYMESRADRKLAEVGRVYLFLQPKGPQALSTPTLLLTGTQLYGRFGSAIAPLGDLNRDGYNDIAVAAPYGGPSGQGQVLIFLGQSEGLSPRPSQVLDSPFPTGSGFGFSLRGAVDIDDNGYPDLIVGAYGASKVAVYRAQPVVMATVQLMVQDSLNPTLKNCVLDQTKTPVSCFNIQMCVGATGHNIPQKLHLKAELQLDLQKPRQGRRVLLLASQQASLTLSLDLGGRDKPICHTTGAFLRDEADFRDKLSPIVLSLNVSLPPEETGGAPAVVLHGETHVQEQTRIILDCGEDDLCVPQLRLTATAGDSPLLIGADNVLELKIEAANDGEGAYEAELAVHLPPGAHYMRALSNIEGFERLVCTQKKENESRVALCELGNPMKKDTRIGITMLVSVENLEEAGESVSFQLQVRSKNSQNPNSKVVMLPVAIQAEATVELRGNSFPASLVVAAEEGDREQEDLDRWVSRLEHTYELHNIGPGTVNGLRLLIHIPGQSQPSDLLYILDVQPQGGLLCSTQPSPKVDWKLSTPSPSSIRPVHHQRERRQAFLQGPKPGQQDPVLVSCDGSASCTVVECELREMVRGQRAMVTVQVMLGLSSLRQRPQEQFVLQSHAWFNVSSLPYSVPVVSLPSGQARVQTQLLRALEERAIPVWWVLVGVLGGLLLLTLLVLAMWKAGFFKRNRPPLEEDEEEE
chain 2: ESNICTTRGVNSCQQCLAVSPVCAWCSDETLSQGSPRCNLKENLLKDNCAPESIEFPVSEAQILEARPLSSKGSGSSAQITQVSPQRIALRLRPDDSKIFSLQVRQVEDYPVDIYYLMDLSFSMKDDLSSIQTLGTKLASQMRKLTSNLRIGFGAFVDKPVSPYMYISPPQAIKNPCYNMKNACLPMFGYKHVLTLTDQVSRFNEEVKKQSVSRNRDAPEGGFDAIMQATVCDEKIGWRNDASHLLVFTTDAKTHIALDGRLAGIVLPNDGHCHIGTDNHYSASTTMDYPSLGLMTEKLSQKNINLIFAVTENVVSLYQNYSELIPGTTVGVLSDDSSNVLQLIVDAYGKIRSKVELEVRDLPEELSLSFNATCLNNEVIPGLKSCVGLKIGDTVSFSIEAKVRGCPQEKEQSFTIKPVGFKDSLTVQVTFDCDCACQAFAQPSSPRCNNGNGTFECGVCRCDQGWLGSMCECSEEDYRPSQQEECSPKEGQPICSQRGECLCGQCVCHSSDFGKITGKYCECDDFSCVRYKGEMCSGHGQCNCGDCVCDSDWTGYYCNCTTRTDTCMSTNGLLCSGRGNCECGSCVCVQPGSYGDTCEKCPTCPDACSFKKECVECKKFNRGTLHEENTCSRYCRDDIEQVKELTDTGKNAVNCTYKNEDDCVVRFQYYEDTSGRAVLYVVEEPECPKGPDILVVLLSVMGAILLIGLATLLIWKLLITIHDRKEFAKFEEERARAKWDTANNPLYKEATSTFTNITYRGT
notes: whole, on cells; Native receptor on washed mouse platelets of GP V wt, +/- and -/- genotype; also called mouse fibrinogen receptor; GPIIb-IIIa

Experiments:
human vWf [1] = molecular target: T1, human vWf (human, UniProt P04275 764-2813); assay: platelet adhesion to vWf-coated 96-well plates (25-500 ng/well) with botrocetin 4 µM; bound platelets read by acid phosphatase activity
T1 construct: Plasma-type multimeric protein; It was coated on plates (25-500 ng/well) in the adhesion assay and FITC-labeled (F/P ratio 1-4) in the flow cytometry assay; also called FITC˜vWf
Experimental: 96-well plates were coated with various concentrations (25-500 ng/well) of human vWf overnight at 4° C. Pooled WP from mice were resuspended in Mg²⁺-free CFTH buffer (1.2×10⁸/mL) containing botrocetin (4 μM), and incubated immobilized human vWf for 1 hour at room temp. Following two PBS washes, bound platelets were lysed and intracellular acid phosphatase activity was quantitated calorimetrically using the substrate pNPP (Sigma).

human vWf [2] = molecular target: T1, human vWf; assay: flow cytometry, FITC-vWf on mouse platelets in PRP stimulated with ADP and epinephrine (no botrocetin)

| Binder | binding result (human vWf [1]) | binding result (human vWf [2]) |
| --- | --- | --- |
| B1 | binds |  |
| B2 |  | no binding |
